The text below walks through data of the DeepSol protein solubility set.

The nature of the series: soluble on expression in E. coli; label from the status in PepcDB or PDB records.
Regarding “MGSDKIHHHHHHMNRLVSRSTLLNASRCFSRTAEASAKQTCLIETHKKHGGKLVEFAGYDMPTQYADFSIKESTIHTRKHVSLFDVSHMLQTYITGKDRVAFIESLTTADVQGLQENSGTLSVFTNEKGGIKDDLIIMKTDKDFLFLVTNAGCIEKDLPYLQENAAAWRSKGKDVKIETLDNRGLVAVQGPEMAKVLQEGTDIDLSKLTFMKTTVGKVFGIDGCRVTRCGYTGEDGVEISVDPTKAEQLVERLLASQAGSVKLAGLGARDALRLEAGLCLYGSDIEENTTPIEAGLAFVVAKRRRETLDFPGAEHIVKQLKEKSWPKRRVGLLAPAGRCPRSHLPLIDPLDKCSIGFVTSGCPSPTLGKNIAIAYVDKSHSKIGTKFVVDFGAKQAPVEVVKMPFVPTNYFTGK”, the “soluble on expression in E. coli” value is reported as “not soluble”. For “MGSDKIHHHHHHVARLVASVDKYIYTVNGDTILSHQFISNNAQFGNGIEVSQDNHFPWSGEIHYEINNPNQLAFKLGIRIPSWSRNKFGLKINGKKIDLASEDGFIYINVNDESLTVDLSLDMNTKFMRSSNKVSSNYGKIAVQRGPIVYAAEETDNKAPLWNYKVETDKEPKYHYNKDLLEGVGTITVKSIAEEISPEDGPLYSTIDEATANYETDLKLIPYYAWANREEGQMQVWLNK”, the “soluble on expression in E. coli” value is listed as “not soluble”.

Turning to “MKIAGLKQLNTALKEAASGGFSRQASRWLEECGQDFLEIVQSELISTQTIDTEKLLSSFEKGAEDNLWIVQSGGLSLEVGTQLDYASFLNDGHWTSKQDVRWVPGRFQGSRFIYDPAASTGMALKRKWIPGTGYWDHALLLYEQLFEKSLESKLRQWLKKLLEHHHHHH”, the “soluble on expression in E. coli” value is “soluble”. For “EVLPNFAENARPIEGKKPYTVLQLAGRAVYIKDSCNACHSQLIRPFKSETDRYGMYSVSGEFAYDRPFLWGSKRTGPDLARVGNYRTADWHENHMWDPTSVVPDSIMPSYKHMFKNNADIETAYAEALTVKKVFNVPYDAENGTKLGSWEDAQAEVKAEAQAIVDQMKNQEVKDAFAKGEIKEIVALIAYLNSLK” the value was “not soluble”; for “MAHHHHHHMSVVTTLSGVFEADLEATLMGYIHEAIGNAVNKGLQYARSTAQDRVLKMLIAYRRVCTSNATSSLLMPSRLRLIPLFVLSFMKADALVEGTTVPIDDRVQKLFLLMTIPMHQCVTYLYPTLYAVHHLLSEPTSGVIDPETGHCVLPGWQQLIFDSITTDGVYVLCDEQARIVYLWIGSSVVPEVSLELFGTTNALDVGRTVFFENFGERLKNVLYTCLMRDDGMRRFVILHEKDRGEEAFFRQFKEENEGGSMGYDQLLVHLHREVKKSIE”, “not soluble”. For “MSLDEGRTPILGEHPRPTMVRDNCTMLNGWWDYAIVSIPEDETAPKWRKTAAMLTRDEAVRAVKETAIPQTFDGKILVPFSPESALSGVHQTIYPDNLLWYRTVVHPVTLGGEETVRQIGDANRLILHFEAVDYVCACYVNGQLAGTHVGGYLPFDVDISAFIDPDDAFEIALCVYDPNDSGTQLRGKQKIEREGIWYTAQSGIWQSVWLEIVPEAYLRTLTLKGASDGKLFVRAEIGGDKPNAKLHIVVTDPADGTVVADETLPAGVRKVRAEIATAAEHLWSPADPYLYDVRAELRYGSAKPAETAGDAAVVQSQPMDVVSSYCAFRSVEIKPDTKGVARFHLNGKPLFVKGVLDQGYWPDGLMTAPDDEALTHDITAMKNAGFNMLRKHIKIESARWYYHCDRLGMLVWQDAVSGGGTDGEYNAWTTNRKPTLIRSTWNKFRDDTAKHFTALGADDPIYRRDWSRTCDAMVHMLGGHPSIVTWTLFNEGWGQFDACDATERIHALDPTRPIDATSGWYDQHCGDYHSVHNYFRPLEIYPDKGPLRGYVAEFEKKHRRRRRAAHYVVLPVARHGVRAFVISEFGGLAQLVPEHAAVSRAYGYGEYDSIDDWRAAVRSVLASAAALESRGLAGYVYTQVSDVEEELNGLLTYDRRVDKFAEEGHHHHHH” the value was “not soluble”; for “MAMGKPMQVSRYWRHFREKYRLIGGKCENGHLLFPKRPICPICGSRNIEEFQFSGKGKVITWTIVRNPPSGFEYYKPYPLALVQLEEGPVVLAQLTDVEPEEIKEGMEVEMVTRKIREFDEDGLILYGYKFRPIIKSELEHHHHHH”, “not soluble”. As to “MRGSHHHHHHGSMTRSALVTGITGQDGAYLAKLLLEKGYRVHGLVARRSSDTRWRLRELGIEGDIQYEDGDMADACSVQRAVIKAQPQEVYNLAAQSFVGASWNQPVTTGVVDGLGVTHLLEAIRQFSPETRFYQASTSEMFGLIQAERQDENTPFYPRSPYGVAKLYGHWITVNYRESFGLHASSGILFNHESPLRGIEFVTRKVTDAVARIKLGKQQELRLGNVDAKRDWGFAGDYVEAMWLMLQQDKADDYVVATGVTTTVRDMCQIAFEHVGLDYRDFLKIDPAFFRPAEVDVLLGNPAKAQRVLGWKPRTSLDELIRMMVEADLRRVSRE”, the “soluble on expression in E. coli” value is given as “soluble”.

Turning to “MGHHHHHHSHMKNSEESSSSSEDTNNATDTNTSESQDISVNGPEKVGDVYEIDGGTAKVMAISNKETTVKTGPIQFTVKKVIAAVANEQLPFIDVQIESENTSDEVVRFRPSLAQLATSTGVQIDEPSLLESDRLLDEYVGKVNDSGSIIYVFDNEEDIKDLESIRLRISSPFNEDLKNLGDKLDLKINLEH”, the “soluble on expression in E. coli” value was “soluble”. Regarding “MGSDKIHHHHHHMRWNRMNPFGSYKKVVSARSTLKEVLKKAQDGGIVSTAFIYGLENNLLDGVIVADNAGEFKAVPKVATTPEEVLEAAGTKYTVCPNISVLKSAVREYGCEKIGVVGTPCQVRAVRKLMKYPVGFRHVPDKIALIIGIFCMENFPYYGLKLIVEEHCGVKMEDVVKMDIGKGKFWVYTRWGETKAIKLKETHPYEQIACHVCTDYTAELADISTGSVGSPDGWSTVFIRTAKGEEIFNKMVEDGYLEVKPIEEVKPGLGLVEKLALQKKEKNMKEIEHRKELGLPIPY”, the “soluble on expression in E. coli” value was “not soluble”. With “AHHHHHHGSKILVVAPCLLTPFYVYRGPKDKEYKTSSELRKLLAELSDEWFIFLYPCPELLAVGWPRPPMSREVLERLGTRERSKIIADFIGRVLTEEKPEKVVFVGVKGSPTCGVFTTTSSNPDEFPYVAVQEFFYLSKEERLRKYKELTKNFKVINAPGLLFEILMARFPEAIFVEFDKDNIEESIRRIREVVKE”, the “soluble on expression in E. coli” value is given as “soluble”.

Consider “MGHHHHHHSHMSKAIKQNLADSKKMSAELFCLTYGAMVTEMLKDYEDPKDVTIQLDKMGFNMGTRLADDFLAKNANVPRCVDTRQIADVLCRNAIPCYLGISATASSWTSGDREFTITLEANPLTELVQVPAHLVSAGLSYSQLIAGAIRGALEAVHFKVYASATDTGANTEIRIRFDQVLKDSLPAGEDD”, for which the “soluble on expression in E. coli” value was “soluble”.

On to “MRKWETFIIDYMNKSKKTFVKTIDIEHHLKTLLKQEYDDDGGYFKYSSTLKNMVEEEKIQPVKARGHNHQTPPVFNEYRLVKKERRTNPTHIKKLMTDYLLFNMTAFYDEAEFEKWKFYIDRVHAFLTQNSDTKNNILKANERSFELFRNEKFLLDKEGTKFLANLGLTLSDLNCRRTYEPFVEYQPNPSKKPKNILIIENRDTFDSIKELMIDGIDTWSRITFDMVIYGEGDKIQRSFYFLEEYELEDYEVYYFGDLDARGIHICSELIKIDNRVKPFIPFYIELLNRYGHEPSTRTIERKLKQTIIDDSLKLFSSFFEGDYIDELKRYTDIIQNVQIYIPQEGLNLVILRKLGERR”, for which the “soluble on expression in E. coli” value is “not soluble”. For “MLTDGSYFHLHLVSDSTGETLITVSRAVTAQYANVTPVEHVYPLVRSQKQLDRVLQEIEEAPGIVLFTLLETELVNRLEAKCQEINSPSLSIIGPVMQLFEAYLGASTMGRVGAQHTLNAEYFQRIDALNYSMMHDDGQHVEGLEEADVVLVGVSRTSKTPTSIYLANRGIRTANVPLVAGIPIPHQLETLKKPLVVSLHASPERLIQVRQNRLLSLGAGSGNDSYIDRQAVTDEVLLARKLSAKYGWSLLDVTRRSIEETAAAIMKLLADRQRQRVPELEHHHHHH” the value was “not soluble”; for “MSLFQSDLKLIVFQHGFFGERFVANLMNYPNSCPSYGACGIDGCTQCKEGLYNFSKNIIAVFSMPDPTTMPDFIENAEDFLPKVIPEADIAVAINLHPDVLAVMPEKLKGKVKALIVPVEEPRWCSPGLAKQIREKCDELGLEFAAPKPFCNLRPSEEHPTINRMIEEMRIGYPEFEIELLEDGKAYVRISRSQPCGCAYYIGVKLRGFDFSEVKEGKMRELWNVVAEAHHSYPCTASMERDNEYNETLLHVGGYIARHAVNRALGYEGDEDIPEHIKHIVLEGGSHHHHHH”, “soluble”; for “SMTTTTTTISQHNFYGAGDSETCISIIENLKEEYGLFVWPCSVILAEYVWQHRSRFRDSSILELGAGTSLPGLVAAKVGANVTLTDDATKPEVLDNMRRVCELNKLNCNVLGLTWGVWDAPILDLRPNIILGADVLYDSSGSFHLFLFWVLAFSFSPCE”, “soluble”.

Turning to “MGNQLDRITHLNYSELPTGDPSGIEKDELRVGVAYFFSDEEEELDDRSQSDSFKDNNSPSKDGPVARNEIEYTAFCCQECIYSKLRENEDLNVYSVKTLLTMCKPGDLLELVANAQPPHWAIFEGEDQVIHLYKGEIRKDSLFEISCGRQARIVNNRYRYRPLPADLVMQNASGHVGLSSGEICWTNSESFAAWCRFGKREFKAGGEVHSVEQRYFLKVHLSESTAHTLMFRSLEEMIRERRRVDASGILKELSLVTGKE”, the “soluble on expression in E. coli” value is listed as “not soluble”. The result for “MSLGIGKEAEVKKSFEKTLSMYPIKNLEDLYDKEGYRDDQFDKNDKGTWIINSEMVIQPNNEDMVAKGMVLYMNRNTKTTNGYYYVDVTKDEDEGKPHDNEKRYPVKMVDNKIIPTKEIKDKNIKKEIENFKFFVQYGNFKDLSKYKDGDISYNPEVPSYSAKYQVTNDDYNVKQLRKRYDIPTNKAPKLLLKGTGNLKGSSVGYKDIEFTFVEKKGENIYFSDSLHLEPSEDKEGHHHHHH” reads “soluble”. For “MLARTIQRFSVVAKRGYAAAAPAANANPEELRLTFASPDTAVFSNAVVKQVDVPTLAGMVGVLANHVPTIGVLKPGVVSVTTNEGTVQRLFVSSGTLSVNIDGSCQVLAEEVLKVEEIDESAARAELDAAQRASGEGSEVARAEAQIRAEVAEALIKAATNQQ” the value was “not soluble”. For the sequence “MSLKFMYSALLGNPVEHSISDELFEYLNHNIGVLDEYKHKKILVDSVCLEDKIKHLINDPKCIGLNITLPYKREVMRYIDNLDRVAEITGSVNNIYKSGNIITGTNTDWKGIYNTLVFFNISHITKCCVLGTGGTARAAIFALQKLQISPTVVYREPISENTRSLIKSFPDLKYITYKELADQQILNDMEIIINTTPVGMINYEESLPINFDHLDNVNYKDKYFMDVVFNPLHTKLHEYFGKKGAKIIDGLWVLIFQGIEAFSLWSDKINDGKYFFSEGHHHHHH”, the “soluble on expression in E. coli” value was “not soluble”. The result for “MSNQLFDAYFTAPAMREIFSDRGRLQGMLDFEAALARAEASAGLVPHSAVAAIEAACQAERYDTGALANAIATAGNSAIPLVKALGKVIATGVPEAERYVHLGATSQDAMDTGLVLQLRDALDLIEADLGKLADTLSQQALKHADTPLVGRTWLQHATPVTLGMKLAGVLGALTRHRQRLQELRPRLLVLQFGGASGSLAALGSKAMPVAEALAEQLKLTLPEQPWHTQRDRLVEFASVLGLVAGSLGKFGRDISLLMQTEAGEVFEPSAPGKGGSSTMPHKRNPVGAAVLIGAATRVPGLLSTLFAAMPQEHERSLGLWHAEWETLPDICCLVSGALRQAQVIAEGMEVDAARMRRNLDLTQGLVLAEAVSIVLAQRLGRDRAHHLLEQCCQRAVAEQRHLRAVLGDEPQVSAELSGEELDRLLDPAHYLGQARVWVARAVSEHQRFTA” reads “soluble”.
